Here are results for five molecules from patent US20240124595A1 (UNIVERSITY OF SASKATCHEWAN, published 2024).

Test [1] deals with T1, recombinant murine IGF2R domains 11-13 Fc fusion protein (murine; human, UniProt Q07113 1504-1982).
T1 construct: Soluble Fc fusion expressed in Expi293F; also called murine IGF2R fragment; not shown: human IgG1 Fc from a modified pFUSE-hIgG1-Fc2 vector (Invivogen)
In words: competitive Fab-phage ELISA, same protein in solution as competitor.

For test [2], the target named is T2, recombinant canine IGF2R domains 11-13 Fc fusion protein (canine; human).
T2 construct: Soluble Fc fusion expressed in Expi293F; also called canine IGF2R fragment; not shown: human IgG1 Fc from a modified pFUSE-hIgG1-Fc2 vector (Invivogen)
T2 chain: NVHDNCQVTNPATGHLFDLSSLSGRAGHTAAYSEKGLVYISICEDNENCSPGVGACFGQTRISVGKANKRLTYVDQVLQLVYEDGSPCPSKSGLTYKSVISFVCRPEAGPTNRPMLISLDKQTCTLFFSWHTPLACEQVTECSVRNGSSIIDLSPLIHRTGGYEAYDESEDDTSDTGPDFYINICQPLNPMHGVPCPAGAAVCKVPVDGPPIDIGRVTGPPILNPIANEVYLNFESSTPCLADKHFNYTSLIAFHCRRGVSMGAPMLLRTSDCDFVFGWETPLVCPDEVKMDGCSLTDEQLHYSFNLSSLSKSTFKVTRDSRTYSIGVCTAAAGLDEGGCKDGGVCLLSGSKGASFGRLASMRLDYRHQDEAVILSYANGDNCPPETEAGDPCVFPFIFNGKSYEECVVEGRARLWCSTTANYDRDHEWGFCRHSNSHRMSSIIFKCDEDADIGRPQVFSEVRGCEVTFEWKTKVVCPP
Described as above.

Test [3] concerns the target T3, recombinant human IGF2R domains 11-13 Fc fusion protein (human, UniProt P11717 1511-1989).
T3 construct: Soluble Fc fusion expressed in Expi293F; also called human IGF2R fragment; not shown: human IgG1 Fc from a modified pFUSE-hIgG1-Fc2 vector (Invivogen)
The test is described as above.

Test [4] addresses T4, human IGF2R on human osteosarcoma cells (human, UniProt P11717 41-2491).
T4 construct: whole, on cells; Endogenous receptor on tumour cell lines, not transfected cells; also called OS-33
In words: flow cytometry on human OS cell lines. (A flow cytometer gives signals particle by particle.)

Test [5] concerns the target T1, recombinant murine IGF2R domains 11-13 …. In words: ELISA on coated recombinant IGF2R. For orientation: An ELISA detects its analyte on a solid surface through an enzyme-linked reagent.
Test [6] has as its target T2, recombinant canine IGF2R domains 11-13 …. In words: ELISA on coated recombinant IGF2R.
Test [7] concerns the target T3, recombinant human IGF2R domains 11-13 …. Nature of the test: ELISA on coated recombinant IGF2R.
For test [8], the target named is T5, recombinant canine IGF2R domains 11-13 Fc fusion protein.
T5 chain: T2 chain
In words: ELISA; printed as "IC 50 or EC 50".

The target of test [9] is T6, recombinant human IGF2R domains 11-13 Fc fusion protein (UniProt P11717 1511-1989).
T6 chain: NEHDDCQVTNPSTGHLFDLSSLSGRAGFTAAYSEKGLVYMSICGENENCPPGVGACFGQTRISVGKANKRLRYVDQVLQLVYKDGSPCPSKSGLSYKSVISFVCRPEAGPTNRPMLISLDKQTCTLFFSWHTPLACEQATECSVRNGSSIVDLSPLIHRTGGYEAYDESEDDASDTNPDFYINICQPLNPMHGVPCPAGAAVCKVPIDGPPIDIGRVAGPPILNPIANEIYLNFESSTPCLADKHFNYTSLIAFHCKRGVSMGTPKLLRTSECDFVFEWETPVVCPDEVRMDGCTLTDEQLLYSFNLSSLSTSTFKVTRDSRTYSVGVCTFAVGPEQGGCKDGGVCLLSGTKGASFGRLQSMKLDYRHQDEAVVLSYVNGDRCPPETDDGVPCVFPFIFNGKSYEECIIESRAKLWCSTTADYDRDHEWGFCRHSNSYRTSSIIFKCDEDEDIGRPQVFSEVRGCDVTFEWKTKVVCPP
In words: ELISA; printed as "IC 50 or EC 50".

Test [10] concerns the target T7, recombinant murine IGF2R domains 11-13 Fc fusion protein (UniProt Q07113 1504-1982).
T7 chain: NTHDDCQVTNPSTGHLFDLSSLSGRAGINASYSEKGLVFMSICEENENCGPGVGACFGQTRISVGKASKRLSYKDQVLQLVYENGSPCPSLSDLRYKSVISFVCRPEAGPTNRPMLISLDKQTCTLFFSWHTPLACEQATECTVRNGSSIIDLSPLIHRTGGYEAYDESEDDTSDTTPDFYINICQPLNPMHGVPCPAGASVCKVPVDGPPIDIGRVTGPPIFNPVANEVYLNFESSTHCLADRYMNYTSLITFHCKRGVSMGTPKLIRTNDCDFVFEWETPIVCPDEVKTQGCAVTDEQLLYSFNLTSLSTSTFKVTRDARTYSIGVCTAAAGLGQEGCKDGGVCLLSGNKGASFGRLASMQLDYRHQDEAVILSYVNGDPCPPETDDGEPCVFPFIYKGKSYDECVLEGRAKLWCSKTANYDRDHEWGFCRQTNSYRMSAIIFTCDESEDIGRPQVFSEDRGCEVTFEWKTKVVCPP
In words: ELISA; printed as "IC 50 or EC 50".

In test [11] the target is T3, recombinant human IGF2R domains 11-13 …. Nature of the test: phage ELISA on recombinant IGF2R Fc fusion.

T4 sequence (P11717 41-2491): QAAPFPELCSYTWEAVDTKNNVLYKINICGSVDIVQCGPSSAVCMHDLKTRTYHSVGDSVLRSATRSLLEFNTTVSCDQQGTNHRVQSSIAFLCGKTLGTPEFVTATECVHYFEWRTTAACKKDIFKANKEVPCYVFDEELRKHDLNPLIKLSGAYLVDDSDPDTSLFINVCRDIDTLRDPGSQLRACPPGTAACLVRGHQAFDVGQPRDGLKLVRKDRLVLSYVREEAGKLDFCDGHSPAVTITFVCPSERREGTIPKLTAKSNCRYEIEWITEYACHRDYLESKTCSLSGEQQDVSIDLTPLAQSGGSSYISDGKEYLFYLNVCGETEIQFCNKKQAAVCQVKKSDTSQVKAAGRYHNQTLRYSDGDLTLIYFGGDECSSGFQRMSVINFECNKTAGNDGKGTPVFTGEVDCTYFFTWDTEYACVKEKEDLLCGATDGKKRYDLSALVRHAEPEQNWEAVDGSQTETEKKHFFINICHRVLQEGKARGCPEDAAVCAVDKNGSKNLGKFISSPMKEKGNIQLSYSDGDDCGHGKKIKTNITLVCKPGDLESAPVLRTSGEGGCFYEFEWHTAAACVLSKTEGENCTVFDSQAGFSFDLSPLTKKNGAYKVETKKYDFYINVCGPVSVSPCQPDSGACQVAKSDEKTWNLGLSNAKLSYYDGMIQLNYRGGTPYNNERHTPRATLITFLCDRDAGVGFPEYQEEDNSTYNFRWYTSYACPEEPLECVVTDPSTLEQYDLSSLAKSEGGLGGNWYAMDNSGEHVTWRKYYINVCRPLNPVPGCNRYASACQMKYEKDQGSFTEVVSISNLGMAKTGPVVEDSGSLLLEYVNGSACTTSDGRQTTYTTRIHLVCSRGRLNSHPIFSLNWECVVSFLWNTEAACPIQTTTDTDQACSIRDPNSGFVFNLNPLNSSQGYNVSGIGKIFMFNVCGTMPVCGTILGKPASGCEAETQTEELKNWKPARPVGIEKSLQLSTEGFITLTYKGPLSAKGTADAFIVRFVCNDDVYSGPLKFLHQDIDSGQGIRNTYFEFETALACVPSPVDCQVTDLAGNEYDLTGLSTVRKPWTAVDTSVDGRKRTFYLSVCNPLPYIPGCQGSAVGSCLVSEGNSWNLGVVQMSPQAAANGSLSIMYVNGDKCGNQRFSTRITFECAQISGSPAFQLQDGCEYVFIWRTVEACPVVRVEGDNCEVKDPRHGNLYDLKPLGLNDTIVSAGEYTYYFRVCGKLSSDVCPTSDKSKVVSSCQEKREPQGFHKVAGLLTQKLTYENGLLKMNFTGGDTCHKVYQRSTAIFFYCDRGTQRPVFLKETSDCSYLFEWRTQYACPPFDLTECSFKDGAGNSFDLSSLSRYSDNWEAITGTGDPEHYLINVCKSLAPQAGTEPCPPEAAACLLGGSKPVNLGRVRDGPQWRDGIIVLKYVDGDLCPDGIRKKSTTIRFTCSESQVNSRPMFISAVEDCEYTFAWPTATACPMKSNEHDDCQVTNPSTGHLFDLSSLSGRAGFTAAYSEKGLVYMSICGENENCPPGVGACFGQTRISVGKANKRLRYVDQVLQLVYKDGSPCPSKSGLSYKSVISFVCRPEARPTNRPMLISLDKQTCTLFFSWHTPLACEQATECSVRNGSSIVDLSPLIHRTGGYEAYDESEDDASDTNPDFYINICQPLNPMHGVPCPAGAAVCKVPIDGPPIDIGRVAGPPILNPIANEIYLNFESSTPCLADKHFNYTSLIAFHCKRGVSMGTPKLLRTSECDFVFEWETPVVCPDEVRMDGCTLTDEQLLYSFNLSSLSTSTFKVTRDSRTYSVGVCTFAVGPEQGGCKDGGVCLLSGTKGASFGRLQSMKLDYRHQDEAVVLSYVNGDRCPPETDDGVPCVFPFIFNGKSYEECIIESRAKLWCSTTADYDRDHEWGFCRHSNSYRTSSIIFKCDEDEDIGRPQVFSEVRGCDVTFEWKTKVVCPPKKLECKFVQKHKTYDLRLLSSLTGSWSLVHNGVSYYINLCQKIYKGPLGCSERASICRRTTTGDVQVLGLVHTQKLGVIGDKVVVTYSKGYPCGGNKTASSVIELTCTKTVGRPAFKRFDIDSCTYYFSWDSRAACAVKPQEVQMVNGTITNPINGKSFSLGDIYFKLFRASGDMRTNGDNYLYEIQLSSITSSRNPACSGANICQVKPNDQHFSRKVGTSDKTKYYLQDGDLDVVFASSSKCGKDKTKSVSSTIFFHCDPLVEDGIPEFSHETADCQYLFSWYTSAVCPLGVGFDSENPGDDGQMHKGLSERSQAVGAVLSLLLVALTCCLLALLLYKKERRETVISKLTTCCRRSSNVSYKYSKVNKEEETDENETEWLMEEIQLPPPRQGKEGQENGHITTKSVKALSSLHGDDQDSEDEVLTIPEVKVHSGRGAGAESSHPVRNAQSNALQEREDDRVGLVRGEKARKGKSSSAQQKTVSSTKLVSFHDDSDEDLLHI

B1: IGF2R-Fab-2 (Fab, V domains shown)
VH: EVQLVESGGGLVQPGGSLRLSCAASGFNIKYTYIHWVRQAPGKGLEWVALIDPHYGFTRYADSVKGRFTISADTSKNTAYLQMNSLRAEDTAVYYCSRWYYDHAMDYWGQGTLVTVSS
VL: DIQMTQSPSSLSASVGDRVTITCRASQLVDTAVAWYQQKPGKAPKLLIYFASYLYSGVPSRFSGSRSGTDFTLTISSLQPEDFATYYCQQVVYYPPTFGQGTKVEIK
notes: From the synthetic 4D5-8 (trastuzumab framework) library; also called Fab-phage
For B1, the binding result in test [1], in [2] and in test [3] was “binds” throughout.

B2: IF3 (antibody, human IgG1, kappa, V domains shown)
VH: EVQLVESGGGLVQPGGSLRLSCAASGFNIKDTYIHWVRQAPGKGLEWVAFIDPIFGDTRYADSVKGRFTISADTSKNTAYLQMNSLRAEDTAVYYCSRWGGDGFYAMDYWGQGTLVTVSS
VL: DIQMTQSPSSLSASVGDRVTITCRASQDVNTAVAWYQQKPGKAPKLLIYSASFLYSGVPSRFSGSRSGTDFTLTISSLQPEDFATYYCQQAYFFHHFPPTFGQGTKVEIKR
notes: Full-length human IgG1 kappa expressed in Expi293F cells; also called 1F3; IGF2R-IgG#3
A word on the EC50: it is the concentration giving half of the maximal effect. For the molecule B2, the binding result in [4], in [5], in [6] and in test [7] was “binds” each time. The concentration for a half-maximal effect (EC50) was 3.22 nM in [8], 1.14 nM in test [9] and 3.06 nM in test [10].

B3: IGF2R-Fab-3 (Fab, V domains shown)
VH: B2 VH
VL: DIQMTQSPSSLSASVGDRVTITCRASQDVNTAVAWYQQKPGKAPKLLIYSASFLYSGVPSRFSGSRSGTDFTLTISSLQPEDFATYYCQQAYFFHHFPPTFGQGTKVEIK
notes: as for B1
B3: the binding result in test [1], in test [2] and in test [3] was “binds” each time.

B4: IGF2R-Fab-1 (Fab, V domains shown)
VH: EVQLVESGGGVVQPGGSLRLSCAASGFTFSSYAMHWVRQAPGKGLEWVAVISYDGSNKYYADSVKGRFTISRDNSKNTLYLQMNSLRAEDTAVYYCARDDRFFGGMDVWGQGTTVTVSS
VL: AIRMTQSPSSLSASVGDRVTITCRASQDISSWLAWYQQKPDKAPKSLIYAASSLEDGVPSRFSGSGSGTDFTLTISSLQAEDFATYYCQQYNTYPWTFGQGTKVEIK
notes: From the naive library (VH3-30 / VK1); also called Fab-phage
Turning to B4, the binding result in test [1], in test [2] and in test [11] was “binds” each time.

B5: IF1 (antibody, human IgG1, kappa, V domains shown)
VH: B4 VH
VL: AIRMTQSPSSLSASVGDRVTITCRASQDISSWLAWYQQKPDKAPKSLIYAASSLEDGVPSRFSGSGSGTDFTLTISSLQAEDFATYYCQQYNTYPWTFGQGTKVEIKR
notes: Full-length human IgG1 kappa expressed in Expi293F cells; also called IGF2R-IgG#1; full-size human IgG from Fab1
B5: the binding result in test [4], in test [5], in test [6] and in [7] was “binds” each time.
